According to publication PMC9239237, “Salmonella Facilitates Iron Acquisition through UMPylation of Ferric Uptake Regulator” (mBio, 2022):

T1: Fur (native, not UMPylated) (Escherichia coli K-12 substrain MG1655, UniProt P0A9A9 1-148)
T1 sequence: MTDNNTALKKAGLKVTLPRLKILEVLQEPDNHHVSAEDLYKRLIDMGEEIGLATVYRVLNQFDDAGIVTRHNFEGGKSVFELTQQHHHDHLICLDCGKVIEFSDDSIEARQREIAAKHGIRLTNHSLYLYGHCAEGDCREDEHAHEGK


Key:
[1] = biological target: the molecule itself; assay: SEC; 100 ug protein on a Superdex 200 column; a 53-kDa protein and a 22-kDa protein run under the same conditions as controls
[2] = biological target: T1, Fur (native, not UMPylated); assay: EMSA; shift at Fur:DNA molar ratio above 1; no metal addition stated; DNA annealed in 10 mM Tris-HCl pH 7.5, 150 mM NaCl; binding buffer not stated; 20 nM DNA, 37 C 10 min (Methods) vs 10 nmol DNA, 30 C 10 min (Fig. 4 legend); 6%; details: protein: recombinant; tags: His tag removed with PPase (pGL01); chain copies: 2; blunt

| Binder | stoichiometry N [1] | binding result [2] |
| --- | --- | --- |
| E. coli Fur (ferric uptake regulator) purified from ydiU knockout E. coli, without UMPylation (natural protein, UniProt P0A9A9 1-148, looked up, Ferric uptake regulator Fur, E. coli K-12 substrain MG1655; fur gene amplified from genomic DNA and cloned into pGL01 (modified pET15b with a PPase cleavage site); also called Fur^dYdiU; native Fur; source: E. coli BL21(DE3) ydiU knockout strain, purified (Ni-NTA, His tag removed by PPase, Superdex 200)) MTDNNTALKKAGLKVTLPRLKILEVLQEPDNHHVSAEDLYKRLIDMGEEIGLATVYRVLNQFDDAGIVTRHNFEGGKSVFELTQQHHHDHLICLDCGKVIEFSDDSIEARQREIAAKHGIRLTNHSLYLYGHCAEGDCREDEHAHEGK | 2 | – |
| Fur box DNA (dsDNA) DNA 1: GATAATGATAATGATAATGATAATGATAATGA DNA 2: TCATTATCATTATCATTATCATTATCATTATC | – | binds |
